*1 amine or outer side, *2 acyl side, *3 side chain or, on linkers, in order; H or OH if unused. Where no end group is shown, it is not given here. Side-chain parts run from the residue outwards. [ ]: non-standard residue; d: D form. The star is where a group is joined. Dodecanoyl(12-OPh(4-COOH)) = O=C(O)c1ccc(OCCCCCCCCCCCC(=O)*)cc1; Decanoyl(10-(4-HOOC-PhO)) = O=C(O)c1ccc(OCCCCCCCCCC(=O)*)cc1; C18 diacid = O=C(O)CCCCCCCCCCCCCCCCC(=O)*; C16 diacid = O=C(O)CCCCCCCCCCCCCCC(=O)*; γGlu = O=C(O)[C@H](CCC(=O)[*:2])N[*:1]; Desaminohistidyl = O=C(CCc1c[nH]cn1)*; εLys = N[C@@H](CCCCN[*:1])C(=O)[*:2]; AEEA = NCCOCCOCC(=O)O; Aib = CC(C)(N)C(=O)O

Assay [1] has as its target T1, human GLP-1 receptor (human, UniProt P43220 24-463).
T1 construct: whole, on cells; also called hGLP-1
Kind of assay: SPA displacement of [125I]-GLP-1(7-36)NH2 from human GLP-1 receptor membranes, low albumin (0.005% HSA). Here is the method: (§1) 25 ul (microliter) of test compounds are added to Optiplate. HSA ("high albumin" experiment containing 2% HSA), or buffer ("low albumin" experiment containing 0.005% HSA), was added (50 ul). 5-10 ug protein/sample was added (50 ul) corresponding to 0.1-0.2 mg protein/ml (to be preferably optimised for each membrane preparation). SPA-particles (Wheatgerm agglutinin SPA beads, Perkin Elmer, #RPNQ0001) were added in an amount of 0.5 mg/well (50 ul). […] The plates were sealed with PlateSealer and incubated for 120 minutes at 30° C. while shaking. The plates were centrifuged (1500 rpm, 10 min) and counted in Topcounter.

Assay [2] has as its target T1, human GLP-1 receptor. In words: SPA displacement of [125I]-GLP-1(7-36)NH2 from human GLP-1 receptor membranes; IC50 at 2.0% HSA divided by IC50 at 0.005% HSA. Here is the method: as §1

“N^ε18-[(2S)-2-amino-6-[[(4S)-4-carboxy-4-(13-carboxytridecanoylamino)butanoyl]amino]hexanoyl], N^ε26-[(2S)-2-amino-6-[[(4S)-4-carboxy-4-(13-carboxytridecanoylamino)butanoyl]amino]hexanoyl]-[Lys^8,Glu^22,Gln^34] (SEQ ID NO: 11)-GLP-1-(7-37)-peptide” yielded an IC50 with human GLP-1 receptor [1] of less than 35 nM.
Take “N^ε18-[(2S)-2-amino-6-[[2-[2-[2-[[(4S)-4-carboxy-4-(13-carboxytridecanoylamino)butanoyl]amino]ethoxy]ethoxy]acetyl]amino]hexanoyl], N^ε26-[(2S)-2-amino-6-[[2-[2-[2-[[(4S)-4-carboxy-4-(13-carboxytridecanoylamino)butanoyl]amino]ethoxy]ethoxy]acetyl]amino]hexanoyl]-[Lys^18,Glu^22,Gln^34] (SEQ ID NO: 11)-GLP-1-(7-37)-peptide”: the IC50 in the assay with human GLP-1 receptor [1] was less than 35 nM.
“N^ε18-[(2S)-2-amino-6-[[(2S)-2-amino-6-[[(4S)-4-carboxy-4-[8-[10-(4-carboxyphenoxyl)decanoylamino]octanoylamino]butanoyl]amino]hexanoyl]amino]hexanoyl], N^ε26-[(2S)-2-amino-6-[[(2S)-2-amino-6-[[(4S)-4-carboxy-4-[8-[10-(4-carboxyphenoxyl)decanoylamino]octanoylamino]butanoyl]amino]hexanoyl]amino]hexanoyl]-[Aib^8,Lys^18,Glu^22,Gln^34] (SEQ ID NO: 9)-GLP-1-(7-37)-peptide”: the IC50 with human GLP-1 receptor [1] was less than 35 nM.
In the assay with human GLP-1 receptor [1], “N^ε18-[(2S)-2-amino-6-[[(2S)-2-amino-6-[[(4S)-4-carboxy-4-[10-(4-carboxyphenoxyl)decanoylamino]butanoyl]amino]hexanoyl]amino]hexanoyl], N^ε26-[(2S)-2-amino-6-[[(2S)-2-amino-6-[[(4S)-4-carboxy-4-[10-(4-carboxyphenoxyl)decanoylamino]butanoyl]amino]hexanoyl]amino]hexanoyl]-[Aib^8,Lys^18,Glu^22,Gln^34] (SEQ ID NO: 9)-GLP-1-(7-37)-peptide” gave an IC50 of less than 35 nM.

B1: N^ε18-[2-[2-[2-[[(2S)-2-amino-6-[[2-[2-[2-[[(4S)-4-carboxy-4-[10-(4-carboxyphenoxyl)decanoylamino]butanoyl]amino]ethoxy]ethoxy]acetyl]amino]hexanoyl]amino]ethox … (peptide)
peptide: [Desaminohistidyl]AEGTFTSDVSK([AEEA-εLys-AEEA-γGlu-Decanoyl(10-(4-HOOC-PhO))])YLEEQAVREFIAK([AEEA-εLys-AEEA-γGlu-Decanoyl(10-(4-HOOC-PhO))])LVRGRG
notes: Double-acylated GLP-1 analogue; positions are counted with residue 1 of the entry as no
On to B1, for which the IC50 with human GLP-1 receptor [1] is less than 35 nM. In addition, in the assay with human GLP-1 receptor [2], the “ratio [(IC50/nM) high HSA]/[(IC50/nM) low HSA]” value (shortened to “ratio”) is more than 10.

B2: N^ε18-[(2S)-2-amino-6-[[2-[2-[2-[[2-[2-[2-[[(4S)-4-carboxy-4-[12-(4-carboxyphenoxy)dodecanoylamino]butanoyl]amino]ethoxy]ethoxy]acetyl]amino]ethoxy]ethoxy]acety … (peptide)
peptide: H[Aib]EGTFTSDVSK([εLys-AEEA-AEEA-γGlu-Dodecanoyl(12-OPh(4-COOH))])YLEGQAAK([εLys-AEEA-AEEA-γGlu-Dodecanoyl(12-OPh(4-COOH))])EFIAWLVQGRG
notes: Double-acylated GLP-1 analogue; positions are counted with His as no
In turn, B2 came in with an IC50 in the assay with human GLP-1 receptor [1] of less than 35 nM. For the same molecule, the “ratio” value in the assay with human GLP-1 receptor [2] was more than 10.

B3: N^ε18-[(2S)-2-amino-6-[[2-[2-[2-(15-carboxypentadecanoylamino)ethoxy]ethoxy]acetyl]amino]hexanoyl], … (peptide)
peptide: H[Aib]EGTFTSDVSK([εLys-AEEA-C16 diacid])YLEGQAAK([εLys-AEEA-C16 diacid])EFIAWLVQGRG
notes: as for B2
Take B3: in the assay with human GLP-1 receptor [1], the IC50 was less than 35 nM. For the same molecule, the “ratio” value in the assay with human GLP-1 receptor [2] was more than 10.

B4: N^ε18-[(2S)-2-amino-6-[[(2S)-2-amino-6-[[(4S)-4-carboxy-4-(17-carboxyheptadecanoylamino)butanoyl]amino]hexanoyl]amino]hexanoyl], … (peptide)
peptide: H[Aib]EGTFTSDVSK([εLys-εLys-γGlu-C18 diacid])YLEGQAAK([εLys-εLys-γGlu-C18 diacid])EFIAWLVQGRG
notes: as for B2
On to B4, for which the IC50 with human GLP-1 receptor [1] is less than 35 nM. Further, the “ratio” value in the assay with human GLP-1 receptor [2] is more than 10.

B5: N^ε18-[(2S)-2-amino-6-[[(2S)-2-amino-6-[[(4S)-4-carboxy-4-[12-(4-carboxyphenoxy)dodecanoylamino]butanoyl]amino]hexanoyl]amino]hexanoyl], … (peptide)
peptide: H[Aib]EGTFTSDVSK([εLys-εLys-γGlu-Dodecanoyl(12-OPh(4-COOH))])YLEGQAAK([εLys-εLys-γGlu-Dodecanoyl(12-OPh(4-COOH))])EFIAWLVQGRG
notes: as for B2
Turning to B5, in the assay with human GLP-1 receptor [1], the IC50 was less than 35 nM. Further, the “ratio” value in the assay with human GLP-1 receptor [2] was more than 10.

B6: N^ε18-[(2S)-2-amino-6-[[(2S)-2-amino-6-[[(4S)-4-carboxy-4-[10-(4-carboxyphenoxyl)decanoylamino]butanoyl]amino]hexanoyl]amino]hexanoyl], … (peptide)
peptide: H[Aib]EGTFTSDVSK([εLys-εLys-γGlu-Decanoyl(10-(4-HOOC-PhO))])YLEGQAAK([εLys-εLys-γGlu-Decanoyl(10-(4-HOOC-PhO))])EFIAWLVQGRG
notes: as for B2
The molecule B6 showed an IC50 with human GLP-1 receptor [1] of less than 35 nM. Moreover, the “ratio” value with human GLP-1 receptor [2] is more than 10.

B7: N^ε18-[(2S)-2-amino-6-[[(2S)-2-amino-6-[[(4S)-4-carboxy-4-[10-(4-carboxyphenoxyl)decanoylamino]butanoyl]amino]hexanoyl]amino]hexanoyl], … (peptide)
peptide: H[Aib]EGTFTSDVSK([εLys-εLys-γGlu-Decanoyl(10-(4-HOOC-PhO))])QLEEQAAK([εLys-εLys-γGlu-Decanoyl(10-(4-HOOC-PhO))])EFIAWLVQGRG
Molecule B7 returned an IC50 with human GLP-1 receptor [1] of less than 35 nM. In the assay with human GLP-1 receptor [2], the “ratio” value was more than 10.

B8: N^ε18-[(2S)-2-amino-6-[[(2S)-2-amino-6-[[(4S)-4-carboxy-4-(15-carboxypentadecanoylamino)butanoyl]amino]hexanoyl]amino]hexanoyl], … (peptide)
peptide: H[Aib]EGTFTSDVSK([εLys-εLys-γGlu-C16 diacid])YLEGQAAK([εLys-εLys-γGlu-C16 diacid])EFIAWLVQGRG
notes: as for B2
On to B8, for which the IC50 in the assay with human GLP-1 receptor [1] is less than 35 nM. Further, in the assay with human GLP-1 receptor [2], the “ratio” value was more than 10.

B9: N^ε18-[(2S)-2-amino-6-[[(4S)-4-carboxy-4-(15-carboxypentadecanoylamino)butanoyl]amino]hexanoyl], … (peptide)
peptide: H[Aib]EGTFTSDVSK([εLys-γGlu-C16 diacid])YLEGQAAK([εLys-γGlu-C16 diacid])EFIAWLVQGRG
notes: as for B2
In the case of B9, the IC50 with human GLP-1 receptor [1] was less than 35 nM. Moreover, in the assay with human GLP-1 receptor [2], the “ratio” value is more than 10.

B10: N^ε18-[(2S)-2-amino-6-[[2-[2-[2-[[(4S)-4-carboxy-4-(15-carboxypentadecanoylamino)butanoyl]amino]ethoxy]ethoxy]acetyl]amino]hexanoyl], … (peptide)
peptide: H[Aib]EGTFTSDVSK([εLys-AEEA-γGlu-C16 diacid])YLEGQAAK([εLys-AEEA-γGlu-C16 diacid])EFIAWLVQGRG
notes: as for B2
For the molecule B10, in the assay with human GLP-1 receptor [1], the IC50 is less than 35 nM. Moreover, in the assay with human GLP-1 receptor [2], the “ratio” value was more than 10.

B11: N^ε18-[2-[2-[2-[[(2S)-2-amino-6-[[2-[2-[2-[[(4S)-4-carboxy-4-[10-(4-carboxyphenoxyl)decanoylamino]butanoyl]amino]ethoxy]ethoxy]acetyl]amino]hexanoyl]amino]ethox … (peptide)
peptide: [Desaminohistidyl][Aib]EGTFTSDVSK([AEEA-εLys-AEEA-γGlu-Decanoyl(10-(4-HOOC-PhO))])YLEEQAAK([AEEA-εLys-AEEA-γGlu-Decanoyl(10-(4-HOOC-PhO))])EFIAWLVQGRG
notes: as for B1
B11: the IC50 with human GLP-1 receptor [1] is less than 35 nM. Also, in the assay with human GLP-1 receptor [2], the “ratio” value is more than 10.

The record behind these values is patent US9006178 (Novo Nordisk, dated 2015).
